T1: hRev1 330-833 (core polymerase domain) (human, UniProt Q9UBZ9 330-833)
T1 sequence: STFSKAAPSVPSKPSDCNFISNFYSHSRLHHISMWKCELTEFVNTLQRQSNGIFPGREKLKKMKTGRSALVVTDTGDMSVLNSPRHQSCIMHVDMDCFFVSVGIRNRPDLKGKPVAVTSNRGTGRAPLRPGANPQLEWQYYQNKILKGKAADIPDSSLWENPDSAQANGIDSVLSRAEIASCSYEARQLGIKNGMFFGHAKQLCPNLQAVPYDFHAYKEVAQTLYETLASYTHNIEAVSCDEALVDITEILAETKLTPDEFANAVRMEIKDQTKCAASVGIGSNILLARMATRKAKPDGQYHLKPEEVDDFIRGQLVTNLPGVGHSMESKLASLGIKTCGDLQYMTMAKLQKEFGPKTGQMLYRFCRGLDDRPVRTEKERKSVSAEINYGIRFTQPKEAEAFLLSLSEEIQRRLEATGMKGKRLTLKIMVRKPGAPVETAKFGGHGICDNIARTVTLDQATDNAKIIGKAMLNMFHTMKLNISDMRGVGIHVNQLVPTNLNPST

B1: ss-G4 DNA 28-mer (structured_DNA)
DNA: TGGGTGGGTAGGGTGGGTAGGGGAGGAT
B2: 11/28-mer primer-template non-G4 DNA (mixed)
DNA 1: TATGTGACTATGCTGGGTAGGGGAGGAT
DNA 2: ATCCTCCCCTA
B3: 11/28-mer primer-template G4 DNA (mixed)
DNA 1: TGGGTGGGTAGGGTGGGTAGGGGAGGAT
DNA 2: ATCCTCCCCTA
B4: ss-non-G4 DNA 28-mer (ssDNA)
DNA: TATGTGACTATGCTGGGTAGGGGAGGAT
B5: FAM/Dab 18/42-mer G4 DNA (mixed)
DNA 1: TGAGGGTGGGTAGGGTGGGTGCGTCTGCGGCTGGCTCGAGGC
DNA 2: GCCTCGAGCCAGCCGCAG
B6: FAM/Dab 42-mer ss-G4 DNA (Myc2345 G14/23T) (structured_DNA)
DNA: B5 DNA 1
B7: 23/42-mer Myc2345 G14/23T primer-template (mixed)
DNA 1: B5 DNA 1
DNA 2: GCCTCGAGCCAGCCGCAGACGCA

How the values were obtained:
[1] = molecular target: T1, hRev1 330-833 (core polymerase domain); assay: fluorescence polarization
[2] = molecular target: T1, hRev1 330-833 (core polymerase domain); assay: stopped-flow fluorescence quenching
[3] = molecular target: T1, hRev1 330-833 (core polymerase domain); assay: stopped-flow fluorescence quenching; remark: listed apart in the source
[4] = molecular target: T1, hRev1 330-833 (core polymerase domain); assay: DMS footprinting

Row | Binder | Kd [1] [nM] | further results
1 | B1 | 15.7 ± 8.7 | –
2 | B2 | 129 ± 20 | –
3 | B3 | 8.4 ± 2.5 | –
4 | B4 | 65.7 ± 8.8 | –
5 | B5 | – | binding result [2]: binds
6 | B6 | – | binding result [3]: binds
7 | B7 | – | binding result [4]: binds

Reference: paper PMC3950705
